The values below come from patent publication US20220106400A1.

The term EC50 denotes the midpoint of the concentration-response curve. Lower therefore signals greater potency.

Experiment [1] concerns the target hCD64 (FcgRI) (human) (UniProt P12314). Description: FcR binding, Example 16.
The target of experiment [2] is human GITR on activated human CD4 T cells (human) (UniProt Q9Y5U5). Put plainly: FACS binding to anti-CD3/CD28-activated human CD4 T cells. On the technique in general: Flow cytometry measures light scatter and fluorescence of single cells or particles in a stream.
Experiment [3] has as its target hCD64 (FcgRI) (human) (UniProt P12314). Description: told in the description as a result of the Examples; method not given.

hCD64 (FcgRI) (human), sequence (P12314 16-288 limits assumed): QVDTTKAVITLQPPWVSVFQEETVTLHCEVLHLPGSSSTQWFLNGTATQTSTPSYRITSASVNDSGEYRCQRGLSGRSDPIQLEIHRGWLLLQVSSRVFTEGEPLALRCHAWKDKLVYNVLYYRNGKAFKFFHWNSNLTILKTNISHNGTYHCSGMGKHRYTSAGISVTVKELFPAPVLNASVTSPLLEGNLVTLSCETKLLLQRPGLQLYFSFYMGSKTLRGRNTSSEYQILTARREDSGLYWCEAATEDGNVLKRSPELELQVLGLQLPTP
human GITR on activated human CD4 T cells (human), sequence (Q9Y5U5 26-241): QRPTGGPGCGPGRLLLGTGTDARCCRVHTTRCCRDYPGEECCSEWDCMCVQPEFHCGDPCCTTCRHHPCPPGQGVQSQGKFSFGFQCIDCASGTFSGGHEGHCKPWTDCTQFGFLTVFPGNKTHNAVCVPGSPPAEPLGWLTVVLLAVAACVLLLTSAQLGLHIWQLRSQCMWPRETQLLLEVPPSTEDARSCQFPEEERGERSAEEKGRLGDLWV

As for “antibody with IgG1f-L235E-P238K heavy chain constant domain (Example 16)”, in the experiment with hCD64 (FcgRI) (human) [1], the fold reduction of CD64 binding against P238K alone came out at 1000 fold.

The substance unrelated hIgG2 had an EC50 in experiment [2] of 6.72 nM.

antibody with IgG1 P238K (Example 13) showed a fold reduction of binding relative to wildtype IgG1 with hCD64 (FcgRI) (human) [3] of 100 fold.

With unrelated hIgG1, in experiment [2], the EC50 amounted to 132 nM.
